{
  "source": "the DeepSol protein solubility set",
  "data": [
    {"assay": "soluble on expression in E. coli; label from the status in PepcDB or PDB records", "values": [
      {"sequence": "MGPKRRQLTFREKSRIIQEVEENPDLRKGEIARRFNIPPSTLSTILKNKRAILASERKYGVASTCRKTNKLSPYDKLEGLLIAWFQQIRAAGLPVKGIILKEKALRIAEELGMDDFTASNGWLDRFRRRRS", "soluble on expression in E. coli": "soluble"},
      {"sequence": "GPLGSPEFPGEFYIPPEPSNDAIEIFSSGIASGIHFSKYNNIPVKVTGSDVPQPIQHFTSADLRDIIIDNVNKSGYKIPTPIQKCSIPVISSGRDLMACAQTGSGKTAAFLLPILSKLLEDPHELELGRPQVVIVSPTRELAIQIFNEARKFAFESYLKIGIVYGGTSFRHQNECITRGCHVVIATPGRLLDFVDRTFITFEDTRFVVLDEADRMLDMGFSEDMRRIMTHVTMRPEHQTLMFSATFPEEIQRMAGEFLKNYVFVAIGIVGGACSDVKQTIYEVNKYAKRSKLIEILSEQADGTIVFVETKRGADFLASFLSEKEFPTTSIHGDRLQSQREQALRDFKNGSMKVLIATSVASRGLDIKNIKHVINYDMPSKIDDYVHRIGRTGRVGNNGRATSFFDPEKDRAIAADLVKILEGSGQTVPDFLRTC", "soluble on expression in E. coli": "soluble"},
      {"sequence": "MFWVFLVRHGEAYPEEVDPQRPLTEKGRKDTEKIAKALKNFGVKPELIYTSPKLRAKQTAKIIANILGVEKIRETELLLPNTDPKETSKLIDGKNVVLCGHLPNLARLFSLLYLSEDNERRVNLSTSGALVLKWKDFWVLELLLEPSVL", "soluble on expression in E. coli": "not soluble"},
      {"sequence": "APRTLYDKIWDDHVVHQSEDGTCLLYIDRHLVHEVTSPQAFEGLRMTGRKVRAPEKTIAVPDHNVPTTEGRDTKIDNEESRIQVEALDKNARDFGINYYPVSDIRQGIVHIVGPEQGWTLPGMTVVCGDSHTATHGAFGALAHGIGTSEVEHVLATQTLIQKKSKN", "soluble on expression in E. coli": "not soluble"},
      {"sequence": "MRMFSVQPIAFVHNERKEIKDDEWGEVRSRITLTEMYAEKSIQGIEDFSHIEVVFYFHKVTDEQIQYFARHPRNNKDYPEVGIFAQRGKNRPNRIGVTIVKVIKREGKSIIVEGLDAIDGTPILDIKPIMKEFMPTEEIHQPKWATDIMRQYWKGNVVKLEHHHHHH", "soluble on expression in E. coli": "soluble"},
      {"sequence": "MSQEDLELFQQMMGDVKTITHDTVELKKAHQVTEAQLAKREAAVSLADHDPEALSIDHAPMLKPDDMLEFKRDGVQDGVYRKLRLGKYPIQARLDLHRKTLKEARSEVIQFIRQCMAMDIRTLLIVHGRGERSTPPALMKSFVSHWLTQISEVQCAHSAQRLHGGTGAVYVLLRKSAEKKAENRERHQKRLG", "soluble on expression in E. coli": "not soluble"},
      {"sequence": "MGSDKIHHHHHHMRAIFFNGDLQYTTDYPDPVRQPGEALIRPHLVGICNTDLEITRGYMNFRGVLGHEFVGTVVASDDPSWQGKRVVGEINAACRRCPTCLRGDVSHCPQRTTLGIYRRDGAMADLFTLPEACLHEVPASVSDEAAVFTEPLAAALEIVEQSHIRPTERVAVVGDGKLGAMIVQVLRLTGCELTLIGRHPERWDVYRQQGITCVRSTDLPGTLFDVVVDCTGNPSGLNIARQIIRPRGRLILKSTFAAETQLNLSMVVVDEIQLIGSRCGPFAPALRLLERGLIATTPLISARYPLAEGLQAFAAAPGQLKVLLSV", "soluble on expression in E. coli": "not soluble"},
      {"sequence": "MGSDKIHHHHHHMNELRNDLLRYLTISATDEEWGIVVTTVGYQFIPPGCAYPLSRHPEKYNFKPQTGRILNEYQLVYITKGSGYFSSQSCKSQKINAGTMILLFPGEWHSYYPDRETGWDEYWVGFRGIHIDKRVEKKFFTKEEPLHRIGLSATIVGLYEDILKFASEEKSGYQQMISSIVLHILGSVYYKEKNNSFTNTYVVDKINEARILMKENIEDPLSPEEIAARLGLGYSWFRRMFKEYTGVSPAQYQLQQKLLRAKELLTSTPLTISEIAYSLHFENAGQFSTFFKKKEGVTPSEFRDRTH", "soluble on expression in E. coli": "not soluble"},
      {"sequence": "TTNLFGFGIDAESRLDLNSKDMTPEKKAKAESETKRLQEFIRYANLDEGTETVFQNIIEDQEKTGNGYIEVLRDGKGQPVELVHCDSQYIRVCKKTEPVEVGYTIMEKGEPVNILRNKRFRKFVQIIDEKKVWFKEYGDPRIMDSTNGNYVEESELESKEFRDATEIIHFKIGTSAYGVPRWIGNVVSLYGARKAEELNLLYFVNGRHVPAAVVVQGGLLDEDAYNNLEEYMKGVSGTENAYQFLVLEVQGEEITNANGDKNLSDVKVEIKSLADMIQKDAMFLEYDATHRKKMRSSFRLPPIYTGEADEYNKATAETARKTTEEQVFQPMRRKLARKINGAFLEALDISEAKLVLKSPDLTDIASISNAIYPFISAASVIPNDLRPMLE", "soluble on expression in E. coli": "not soluble"},
      {"sequence": "MGSDKIHHHHHHMKLRILSDLHIEHAMPQAVPACDADIVILAGDIANGRDGIDWAARTFGQPLIYVPGNHEYYEGNVDAVDRLMADAAATHPGVHLLNGAVAEFSGASGRVRVLGTTWWTDYCLFGTDRREASMQACSAVMLDHRLIELNGDDGHLRHFSPEDALARHHIASAWLAGQLALPFDGKTVVVTHHGPDLGSLDPRYSHDLVSGGFLSRRPDLVAQADLWIHGHTHTSFDYCIDTSRVVCNPRGYVSRRTGELENSRFDWCCVVEI", "soluble on expression in E. coli": "not soluble"},
      {"sequence": "MAISSRNTLLAALAFIAFQAQAVNVTVAYQTSAEPAKVAQADNTFAKESGATVDWRKFDSGASIVRALASGDVQIGNLGSSPLAVAASQQVPIEVFLLASKLGNSEALVVKKTISKPEDLIGKRIAVPFISTTHYSLLAALKHWGIKPGQVEIVNLQPPAIIAAWQRGDIDGAYVWAPAVNALEKDGKVLTDSEQVGQWGAPTLDVWVVRKDFAEKHPEVVKAFSKSAIDAQQPYIANPDVWLKQPENISKLARLSGVPEGDVPGLVKGNTYLTPQQQTAELTGPVNKAIIDTAQFLKEQGKVPAVANDYSQYVTSRFVQ", "soluble on expression in E. coli": "not soluble"},
      {"sequence": "MAHHHHHHMRGQSSFSSIGEKPNALRDANDVTPMDTRHLHATCAAEEITHNTGANKKRQRGCRTPLMNAGDGSSIHSATSHQSSQAAHRTADAPSDISNRPTQSSGRAMELIRQRRSTVVRRITDIPALGQSHKEGERCGLINVGAVNVEAENAPSEQFSTFFSFFFFCRTHEQPMNEESCAALLVGILEVAPSTRPRHTRMLRSTLEMNRTPLEMVILGLQKIASRWETKQARPLTKEWLNQPIRSRTDWKERVVFRLVWITASRLFEIVALTPKNVTLEPNGTLILYWPVAPKTARADPHCASRFVGMRGQDAFDIIKLCMTL", "soluble on expression in E. coli": "not soluble"},
      {"sequence": "MSLKIAMIGLGDIAQKAYLPVLAQWPDIELVLCTRNPKVLGTLATRYRVSATCTDYRDVLQYGVDAVMIHAATDVHSTLAAFFLHLGIPTFVDKPLAASAQECENLYELAEKHHQPLYVGFNRRHIPLYNQHLSELAQQECGALRSLRWEKHRHALPGDIRTFVFDDFIHPLDSVNLSRQCNLDDLHLTYHMSEGLLARLDVQWQTGDTLLHASMNRQFGITTEHVTASYDNVAYLFDSFTQGKMWRDNQESRVALKDWTPMLASKGFDAMVQDWLQVAAAGKLPTHIIERNLASHQLAEAICQQITQQVTKGEGGSHHHHHH", "soluble on expression in E. coli": "soluble"},
      {"sequence": "METPQTGYQVKTYNVPVKRYCQTLDLRDSPELIAEYRKRHSQAEVWPEILAGIREVGILEMEIYILGTRLFMIVETPVDFDWDTAMARLNTLPRQQEWEEYMSILQQAAPGMSSAEKWIPMERMFHLYNT", "soluble on expression in E. coli": "not soluble"},
      {"sequence": "MHMELRMVGRLSWITLFTLFLVGCSSAPDDSSPHSQVNDPLESFNRQMWTINYDYLDPYVVRPVSLFYVGYVPKPVRSGIANFLSNLDEPASMVNNLLMGNGTKAVDHFNRFWINTSFGLLGLIDIASEAGIKKYDDKAFSDAVGHYGVGNGPYLMVPGYGPYTVREVTDVVDGMYFPLAYLNIWAGVGKWALEGMETRAALVSQEALLQDSPDPYSLARDAYLQRQAFKAEIQVDDYDPEEEEYLDEYLNEGL", "soluble on expression in E. coli": "not soluble"},
      {"sequence": "MCNTNMSVPTDGAVTTSQIPASEQETLVRPKPLLLKLLKSVGAQKDTYTMKEVLFYLGQYIMTKRLYDEKQQHIVYCSNDLLGDLFGVPSFSVKEHRKIYTMIYRNLVVVNQQESSDSS", "soluble on expression in E. coli": "soluble"},
      {"sequence": "MQQALLDHLRVVTEEEQRILDGVAEVDKDLYTSGKDFTVDSAKMLSEGKLIAVRTHTRFVHFPSHRHNYIEVLYVCQGQLTNIIGGKEVVIHAGELLFLNQYTRHEILPAGEEDIAINFMILPEFFDVAYTMAGNNNVLADFLVNVLRQDEERGEYLHFKVAEVLQIQNLLENMIYSLVTGKGDQNRINQTTMGLIFLYLLESVQYAEMRLPNQYENMIIMTTLDYIEQQYKTATLTELCEKLHLPMHMLSKMIRKNTGFNFKELLQRKRLNKAVELMCETDLPISDIIAAVGYENGSYFHRVFKERYHTTPRAFRVANGKEERVRL", "soluble on expression in E. coli": "not soluble"},
      {"sequence": "MSILHTVNKSPFERNSLESCLKFATEGASVLLFEDGIYAALAGTRVESQVTEALGKLKLYVLGPDLKARGFSDERVIPGISVVDYAGFVDLTTECDTVQAWL", "soluble on expression in E. coli": "soluble"},
      {"sequence": "MRAVFRTDIGQIREHNEDSGGVFVNQSGQYLAVVADGMGGHRAGDVASSMAVAYLQERWEKESSLASPAEAEQWLKTQIAAANEQLFRHACSHPECQGMGTTVVAAVCANSFATVAHIGDSRCYVLNKSGIQQLTDDHSLVNELVKSGQLSKEAAEHHPRKNVLLRALGTEPAVKIDVKTVALDEGDMLLLCSDGLSNKVPEADMIHILTGAGTLEEKAEALIQLANGRGGEDNISLAVIDVSAEREGG", "soluble on expression in E. coli": "soluble"},
      {"sequence": "MNNIAAPDQSFNPAHVLSFDLETTSANPFEARIVTSALVRIDSSGAHPVELLADPGVEIPEAASKVHGISTEYAREHGEPHEAVLKRTVDEIYAAWEEGFTLVVYNAPYDLTVLRQLTGDFVVKGPVYDPYLIDRIMDRFRKGKRTLTDLCSVYGVRMDNAHEATSDALAAARIAWMQAKKRFKDDLAAYSHDELMEYQAVQYYELQKDMKKYLDGLGRDTSTVNFGWPMQNSR", "soluble on expression in E. coli": "not soluble"},
      {"sequence": "MDNFMDYIYRDFHIMQQTYATLVSVNNKIQIQTDKYSDNITSRQYMTILAIFHLPEDETTLNNIAKKLGTTKQNIKQIINILEGKGYVQTMPSKQDKRAINVSVTKEGWQVAESYAEKSFELFGDIFNDFSVEEMKILWMLLKKLYRFDGEEQDGFEEDANPSGELTEEQIEMAEAFARRRREKYGSK", "soluble on expression in E. coli": "not soluble"},
      {"sequence": "MSKISSVLIDLSGTIHIEEFAIPGAQTALELLRQHAKVKFVTNTTKESKRLLHQRLINCGFKVEKEEIFTSLTAARDLIVKNQYRPFFIVDDRAMEDFEGISTDDPNAVVIGLAPEKFNDTTLTHAFRLIKEKKASLIAINKGRYHQTNAGLCLGPGTYVAGLEYSAGVEATIVGKPNKLFFESALQSLNENVDFSSAVMIGDDVNDDALGAIKIGMRAILVKTGKFRDGDELKVKNVANSFVDAVNMIIENKVENG", "soluble on expression in E. coli": "not soluble"},
      {"sequence": "MGSDKIHHHHHHMHYLPFIRVVMNTADEDAQMERDEWASREVMPITNWGRRPDGSEIVQYDAPMFFSFTEHSLLHQYPHMRAECHWHVDLELTYIIHGHMWYFVNGETVRLDEGQAIFVNSRQLHYGFTKDGSDCEFSCTLLNPAKMCASFEVYDRFIAPLMAENTMPYAVITDDTAPGRRLLATIRQLHAAKFGPLERSERSAEPLPADDMTLTDNTEALTVLSCFYAVVRDILAIAGSHCATSTAPHPRIVTLRKMIDYVQRYYVRPITLKQIASAGSVGRTTCASIFRESLNQSPIEFVNDVRVRAAANLLVTSSLPIATVAKQTGFSSASFFSRTFHRFMGVTPITYRTTHTKRKSEE", "soluble on expression in E. coli": "not soluble"},
      {"sequence": "MGSSHHHHHHSSGLVPRGSHMAKAPEQTVTEPVGSYARAERPQDFEGFVWRLDNDGKEALPRNFRTSADALRAPEKKFHLDAAYVPSREGMDALHISGSSAFTPAQLKNVAAKLREKTAGPIYDVDLRQESHGYLDGIPVSWYGERDWANLGKSQHEALADERHRLHAALHKTVYIAPLGKHKLPEGGEVRRVQKVQTEQEVAEAAGMRYFRIAATDHVWPTPENIDRFLAFYRTLPQDAWLHFHCEAGVGRTTAFMVMTDMLKNPSVSLKDILYRQHEIGGFYYGEFPIKTKDKDSWKTKYYREKIVMIEQFYRYVQENRADGYQTPWSVWLKSHPAKA", "soluble on expression in E. coli": "soluble"}
    ]}
  ]
}
